Entries after “also recorded” stand apart in the source; their conditions may differ.
Assays:
[1] = tested on: thromboses of a dog's femoral vein or artery; experiment: Thrombolytic activity on model of thrombosis of dog's femoral vein (lysis of thrombus); type: in vivo; details: dogs, n=1
From the text: (§1) The study of the specific (thrombolytic) effect of the polysaccharide fibrinolysin derivative according to the present invention has been studied on models of thromboses of a rabbit's jugular vein and a dog's femoral vein or artery. Thrombi of 1 to 2.5 cm size were formed in the above-mentioned animals which fully obliterated the cross-section of a blood vessel. The administration of the test preparation at the background of heparin was started one hour after the thrombus formation.
(§2) On the basis of an expected prolonged fibrinolytic effect of the preparation according to the present invention, a test dose of the preparation ranging from 400 to 4,000 units per kg of the bodyweight is dissolved in a physiological solution, 20-30 ml for rabbits and 50-100 ml for dogs, and injected by means of a syringe in a jet-like manner intravenously over 20 minutes, not following the instruction on the use of fibrinolysin (intravenously by the dropwise method at a rate of 10-12 drops per minute).
(§3) The dynamics of the thrombus formation and lysis was observed visually and by palpation during 6 hours of the experiment, after one, two and three days. The angiography and fluorometry were carried out prior to the beginning of the treatment and one day after the administration of the preparation.

[2] = tested on: thromboses of a rabbit's jugular vein; experiment: Thrombolytic activity on model of thrombosis of rabbit's jugular vein (lysis of thrombus); type: in vivo
From the text: as §1, §2, §3

experimental thrombosis = experiment: Duration of fibrinolytic effect and effective dose in experimental thrombosis; type: in vivo, rabbits, dogs
From the text: as §1, §2, §3

blood coagulation = experiment: Blood coagulation and bleeding during therapy of experimental thrombosis; type: in vivo, rabbit
From the text: as §1, §2, §3

thrombin time = experiment: Thrombin time in dogs with experimental thrombosis; type: in vivo, dog
From the text: (§4) The prolonged effect of the fibrinolysin derivative according to the present invention has been studied in experiments on dogs in comparison with the effect of native fibrinolysin.
Variation of thrombin time (in seconds) in dogs with expe-
rimental thrombosis after administration of the fibrinolysin
derivative according to the present invention and native

[3] = tested on: euglobulin fraction of dog's plasma; experiment: Lysis duration of the euglobulin fraction of dog's plasma with experimental thrombosis; type: in vivo
From the text: as §4
Variation of lysis duration (in minutes) of the euglobulin
fraction of dog's plasma with experimental thrombosis upon
administration of the fibrinolysin derivative according to
the present invention and native fibrinolysin

[4] = Fibrinolytic activity of the preparation; type: biochemical; details: for Specific (fibrinolytic) activity: lyophilized preparation; for Total activity relative to the initial value: of the initial value
[5] = Solubility and hygroscopicity of the preparation; type: physicochemical; details: for Solubility in 0.9% isotonic solution of sodium chloride: 0.9% sodium chloride; for Hygroscopicity: lyophilized powder
[6] = before administration (baseline)

B1: Fibrinolysin: native enzyme; thrombolytic preparation administered intravenously (protein, UniProt P00747 20-580; P00747 581-810, looked up)
Plasmin heavy chain A: EPLDDYVNTQGASLFSVTKKQLGAGSIEECAAKCEEDEEFTCRAFQYHSKEQQCVIMAENRKSSIIIRMRDVVLFEKKVYLSECKTGNGKNYRGTMSKTKNGITCQKWSSTSPHRPRFSPATHPSEGLEENYCRNPDNDPQGPWCYTTDPEKRYDYCDILECEEECMHCSGENYDGKISKTMSGLECQAWDSQSPHAHGYIPSKFPNKNLKKNYCRNPDRELRPWCFTTDPNKRWELCDIPRCTTPPPSSGPTYQCLKGTGENYRGNVAVTVSGHTCQHWSAQTPHTHNRTPENFPCKNLDENYCRNPDGKRAPWCHTTNSQVRWEYCKIPSCDSSPVSTEQLAPTAPPELTPVVQDCYHGDGQSYRGTSSTTTTGKKCQSWSSMTPHRHQKTPENYPNAGLTMNYCRNPDADKGPWCFTTDPSVRWEYCNLKKCSGTEASVVAPPPVVLLPDVETPSEEDCMFGNGKGYRGKRATTVTGTPCQDWAAQEPHRHSIFTPETNPRAGLEKNYCRNPDGDVGGPWCYTTNPRKLYDYCDVPQCAAPSFDCGKPQVEPKKCPGR
Plasmin light chain B: VVGGCVAHPHSWPWQVSLRTRFGMHFCGGTLISPEWVLTAAHCLEKSPRPSSYKVILGAHQEVNLEPHVQEIEVSRLFLEPTRKDIALLKLSSPAVITDKVIPACLPSPNYVVADRTECFITGWGETQGTFGAGLLKEAQLPVIENKVCNRYEFLNGRVQSTELCAGHLAGGTDSCQGDSGGPLVCFEKDKYILQGVTSWGLGCARPNKPGVYVRVSRFVTWIEGVMRNN
modifications: Plasmin
notes: native enzyme; thrombolytic preparation administered intravenously
[1]; femoral vein, 800 units/kg i.v.
  Efficiency of the therapy (lysis of thrombus): no lysis
[1]; femoral vein, 1,600 units/kg i.v.
  Efficiency of the therapy (lysis of thrombus): full lysis
[2]; rabbits, 600 units/kg i.v.
  Efficiency of the therapy (lysis of thrombus): no lysis
[2]; rabbits, 800 units/kg i.v. (Table 1: 2 animals full lysis, 1 animal no lysis)
  Efficiency of the therapy (lysis of thrombus): full lysis; also recorded: no lysis
[2]; rabbits, 800 units/kg i.v. (Table 1: 2 animals full lysis, 1 animal no lysis), listed as fibrinolysin
  Efficiency of the therapy (lysis of thrombus): no thrombolytic effect in all cases
[2]; rabbits, 1,200 units/kg i.v.
  Efficiency of the therapy (lysis of thrombus): full lysis
[2]; rabbits, 2,000 units/kg i.v.
  Efficiency of the therapy (lysis of thrombus): full lysis
[2]; rabbits, 4,000 units/kg i.v.
  Death of animals: death of animals
  Efficiency of the therapy (lysis of thrombus): full lysis
Experimental thrombosis; 800 units/kg of the bodyweight
  Lysis of a thrombus at the minimal therapeutic dose: does not always cause the lysis of a thrombus
Experimental thrombosis; after administration
  Duration of the fibrinolytic effect: limited to one day
Experimental thrombosis; single intravenous jet-like infusion
  Minimal effective (therapeutical) dose: 800 units/kg
Blood coagulation; during treatment
  Bleeding: bleeding
  Changes in the third phase of blood coagulation: pathological changes in the third phase of blood coagulation
Blood coagulation; first hours after administration
  Content of fibrinogen: down to zero
Thrombin time; after 2 hours
  Thrombin time: 195 s
Thrombin time; after 1 day
  Thrombin time: 95 s
Thrombin time; after 2 days
  Thrombin time: 97 s
Thrombin time; [6]
  Thrombin time, initial parameter: 22 s
[3]; after 2 hours
  Lysis duration of the euglobulin fraction: 3 min
[3]; after 1 day
  Lysis duration of the euglobulin fraction: 105 min
[3]; after 2 days
  Lysis duration of the euglobulin fraction: 90 min
[3]; [6]
  Lysis duration of the euglobulin fraction, initial parameter: 38 min

B2: 1: polysaccharide derivative of fibrinolysin from oxidized polyglucin with the molecular mass of 20,000, reduced with sodium borohydride (conjugate, UniProt P00747 20-580; P00747 581-810, looked up)
Plasmin heavy chain A: EPLDDYVNTQGASLFSVTKKQLGAGSIEECAAKCEEDEEFTCRAFQYHSKEQQCVIMAENRKSSIIIRMRDVVLFEKKVYLSECKTGNGKNYRGTMSKTKNGITCQKWSSTSPHRPRFSPATHPSEGLEENYCRNPDNDPQGPWCYTTDPEKRYDYCDILECEEECMHCSGENYDGKISKTMSGLECQAWDSQSPHAHGYIPSKFPNKNLKKNYCRNPDRELRPWCFTTDPNKRWELCDIPRCTTPPPSSGPTYQCLKGTGENYRGNVAVTVSGHTCQHWSAQTPHTHNRTPENFPCKNLDENYCRNPDGKRAPWCHTTNSQVRWEYCKIPSCDSSPVSTEQLAPTAPPELTPVVQDCYHGDGQSYRGTSSTTTTGKKCQSWSSMTPHRHQKTPENYPNAGLTMNYCRNPDADKGPWCFTTDPSVRWEYCNLKKCSGTEASVVAPPPVVLLPDVETPSEEDCMFGNGKGYRGKRATTVTGTPCQDWAAQEPHRHSIFTPETNPRAGLEKNYCRNPDGDVGGPWCYTTNPRKLYDYCDVPQCAAPSFDCGKPQVEPKKCPGR
Plasmin light chain B: VVGGCVAHPHSWPWQVSLRTRFGMHFCGGTLISPEWVLTAAHCLEKSPRPSSYKVILGAHQEVNLEPHVQEIEVSRLFLEPTRKDIALLKLSSPAVITDKVIPACLPSPNYVVADRTECFITGWGETQGTFGAGLLKEAQLPVIENKVCNRYEFLNGRVQSTELCAGHLAGGTDSCQGDSGGPLVCFEKDKYILQGVTSWGLGCARPNKPGVYVRVSRFVTWIEGVMRNN
modifications: plasmin conjugated to oxidized polyglucin, borohydride-reduced
notes: polysaccharide derivative of fibrinolysin from oxidized polyglucin with the molecular mass of 20,000, reduced with sodium borohydride
[4]
  Specific (fibrinolytic) activity: 21.2 units/mg
  Total activity relative to the initial value: 31.0%
[4]; whole batch
  Total activity: 48200 units
[5]
  Solubility in 0.9% isotonic solution of sodium chloride: soluble
  Solubility in 95% ethanol: substantially insoluble
  Solubility in chloroform: substantially insoluble
  Solubility in ether: substantially insoluble
  Hygroscopicity: hygroscopic
  Solubility in water: soluble

B3: 2: polysaccharide derivative of fibrinolysin from oxidized polyglucin with the molecular mass of 110,000 and the oxidation degree of 20±2% (conjugate, UniProt P00747 20-580; P00747 581-810, looked up)
Plasmin heavy chain A: EPLDDYVNTQGASLFSVTKKQLGAGSIEECAAKCEEDEEFTCRAFQYHSKEQQCVIMAENRKSSIIIRMRDVVLFEKKVYLSECKTGNGKNYRGTMSKTKNGITCQKWSSTSPHRPRFSPATHPSEGLEENYCRNPDNDPQGPWCYTTDPEKRYDYCDILECEEECMHCSGENYDGKISKTMSGLECQAWDSQSPHAHGYIPSKFPNKNLKKNYCRNPDRELRPWCFTTDPNKRWELCDIPRCTTPPPSSGPTYQCLKGTGENYRGNVAVTVSGHTCQHWSAQTPHTHNRTPENFPCKNLDENYCRNPDGKRAPWCHTTNSQVRWEYCKIPSCDSSPVSTEQLAPTAPPELTPVVQDCYHGDGQSYRGTSSTTTTGKKCQSWSSMTPHRHQKTPENYPNAGLTMNYCRNPDADKGPWCFTTDPSVRWEYCNLKKCSGTEASVVAPPPVVLLPDVETPSEEDCMFGNGKGYRGKRATTVTGTPCQDWAAQEPHRHSIFTPETNPRAGLEKNYCRNPDGDVGGPWCYTTNPRKLYDYCDVPQCAAPSFDCGKPQVEPKKCPGR
Plasmin light chain B: VVGGCVAHPHSWPWQVSLRTRFGMHFCGGTLISPEWVLTAAHCLEKSPRPSSYKVILGAHQEVNLEPHVQEIEVSRLFLEPTRKDIALLKLSSPAVITDKVIPACLPSPNYVVADRTECFITGWGETQGTFGAGLLKEAQLPVIENKVCNRYEFLNGRVQSTELCAGHLAGGTDSCQGDSGGPLVCFEKDKYILQGVTSWGLGCARPNKPGVYVRVSRFVTWIEGVMRNN
modifications: plasmin conjugated to oxidized polyglucin
[4]
  Specific (fibrinolytic) activity: 24 units/mg
  Total activity relative to the initial value: 30%
[5]
  Solubility in 0.9% isotonic solution of sodium chloride: readily soluble
  Solubility in 95% ethanol: substantially insoluble
  Solubility in chloroform: substantially insoluble
  Solubility in ether: substantially insoluble
  Hygroscopicity: hygroscopic
  Solubility in water: readily soluble

— patent US4446316A, “Dextran derivative of fibrinolysin” (Vsesojuzny Kardiologichesky Nauchny Tsentr, priority 1980, dated 1984)
